Ends that are not written are not given here. * marks the point of attachment. Palmitoyl = CCCCCCCCCCCCCCCC(=O)*
Tests used:
[1] = target: T1, recombinant SERCA1a (recS1a) (Oryctolagus cuniculus, UniProt P04191); test: Steady-state ATPase activity, enzyme-coupled assay; type: biochemical, rabbit (expressed in S. cerevisiae)
T1 construct: BAD (biotin acceptor domain) (C, cleaved yes); made in house; host or cells: Saccharomyces cerevisiae
Method: resuspended in a large volume of pure water and lyophilized to evaporate most of the TFA. The rinsed powder was then suspended in presence of 10 mM HCl to exchange the anionic residual TFA that may interact with the positive charges of the peptide for chloride. This suspension was lyophilized again.
Three additional cycles of – dissolving in pure water / lyophilisation – will allow to eliminate traces of TFA and to get back to a pH compatible with functional tests. For final solubilisation of SLN in detergent, powder was then dissolved in 50% TFE and an amount of detergent to reach a 100:1 mole:mole detergent:SLN ratio. Here, we used C12E8 as it is fully compatible with functional characterization of SERCA1a 23. This suspension was then lyophilized again to evaporate TFE.
Sarcolipins (Palm-SLN or SLN) were finally resuspended at 0.8 mg/mL (about 200 µM) in a 10 mM potassium phosphate buffer pH 7.4, in the presence of 2.5 mg/mL C12E8.
Expression and Purification of recombinant SERCA1a (recS1a)
The yeast expression plasmid pYeDP60-SERCA1a-BAD (WT) and expression in Saccharomyces cerevisiae was described previously 30. Yeast membranes were solubilized by DDM for subsequent purification of recombinant Ca2+-ATPase by Streptavidin affinity chromatography 31. Purified recombinant SERCA1a was recovered in a buffer containing 50 mM MOPS-Tris pH7, 100 mM KCl, 5 mM MgCl2, 2.1 mM CaCl2, 40 % glycerol (v/v) and 0.5 mg/mL DDM, together with some thrombin remaining from the elution procedure. The protein concentration in the purified fraction was in the 0.05 to 0.15 mg/mL range depending on the batch. […]
Steady-state ATPase activity measurements
Measurements were performed using classical enzyme coupled assay. We measured the rate of NADH oxidation in the presence of 0.1 mg/mL lactate deshydrogenase, 0.05 mg/mL pyruvate kinase, 1 mM phosphoenolpyruvate, 0.25 mM NADH (protocol was adapted from 22) and in the additional presence of 2 mg/mL C12E8 to limit time-dependent inactivation of the purified SERCA1a 20,23.

[2] = tested on: recombinant purified SERCA1a (recS1a); test: Limited proteolysis with proteinase K (SDS-PAGE); type: biochemical, rabbit (expressed in S. cerevisiae); details: Ca2.E1 (1 mM calcium) and E2.Tg (EGTA + thapsigargin); recS1a:pSLN 1:10 mole:mole; 0.3 mg/mL proteinase K, 5-30 min, 20 °C
Method: Yeast-expressed and purified SERCA1a (recS1a) was supplemented with SLN at a mole:mole ratio of 1:10 recS1a:SLN. In absence of SLN, recS1a was supplemented with 0.07 mg/mL C12E8, an amount that corresponds to the detergent brought with chemically synthesized SLN. After 30 min at 20 °C, samples were supplemented with either 1.1 mM EGTA (Ca^2+free ~ 1 mM), or 50 mM EGTA (Ca^2+free ~ 150 nM) and 0.01 mg/mL Tg. After an additional incubation for 10 min at 20 °C, proteolysis was achieved by addition of 0.3 mg/mL proteinase K. Proteolysis was stopped by addition of 1 mM PMSF and incubation on ice for 10 min. After proteolysis arrest, samples were diluted twice in a 4 M-urea containing denaturation buffer, boiled for 60 s, and about 0.75 µg protein were loaded on a 9% SDS-PAGE prepared in the presence of 1 mM Ca^2+[32]. After electrophoresis, gels were stained with Coomassie blue.

T1 sequence (P04191 1-994 isoform P04191-2): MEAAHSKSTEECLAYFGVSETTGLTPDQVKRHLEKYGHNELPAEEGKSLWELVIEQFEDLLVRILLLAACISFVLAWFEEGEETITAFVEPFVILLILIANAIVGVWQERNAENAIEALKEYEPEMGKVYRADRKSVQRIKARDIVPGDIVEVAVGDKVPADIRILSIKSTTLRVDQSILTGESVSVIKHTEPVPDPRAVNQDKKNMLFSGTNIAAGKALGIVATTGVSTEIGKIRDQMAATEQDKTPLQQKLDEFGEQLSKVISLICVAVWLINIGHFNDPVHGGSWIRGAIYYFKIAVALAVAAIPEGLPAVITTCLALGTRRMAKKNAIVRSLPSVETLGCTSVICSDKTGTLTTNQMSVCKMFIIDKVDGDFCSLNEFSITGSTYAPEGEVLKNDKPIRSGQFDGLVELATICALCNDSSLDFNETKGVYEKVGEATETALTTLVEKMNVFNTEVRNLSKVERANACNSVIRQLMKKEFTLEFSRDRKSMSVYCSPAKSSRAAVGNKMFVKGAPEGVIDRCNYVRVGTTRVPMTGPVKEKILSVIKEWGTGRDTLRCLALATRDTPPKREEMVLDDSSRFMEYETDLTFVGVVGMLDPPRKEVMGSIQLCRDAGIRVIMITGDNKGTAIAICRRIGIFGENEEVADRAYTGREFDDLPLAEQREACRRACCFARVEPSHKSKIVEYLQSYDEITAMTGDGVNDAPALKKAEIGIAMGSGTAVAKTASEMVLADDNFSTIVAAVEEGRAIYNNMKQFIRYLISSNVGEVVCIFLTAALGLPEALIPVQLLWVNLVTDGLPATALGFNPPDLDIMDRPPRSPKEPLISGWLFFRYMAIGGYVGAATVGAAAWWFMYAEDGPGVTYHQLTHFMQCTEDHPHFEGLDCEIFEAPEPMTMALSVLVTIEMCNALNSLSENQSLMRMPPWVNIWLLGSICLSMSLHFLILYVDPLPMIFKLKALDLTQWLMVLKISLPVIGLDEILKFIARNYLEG

- maximal turnover ([1]; recS1a + Palm-SLN, recS1a alone 2.88 +/- 0.12): 2.74 +/- 0.04 µmol ATP/mg/min
- affinity for calcium and maximum turn-over ([1]; recS1a in absence or presence of pSLN, enzyme-coupled assay): no difference was observed
- Ca1/2 (ATPase activity), recS1a + pSLN ([1]; steady state, NADH-coupled assay, 2 mg/mL C12E8, three independent experiments, p=0.248): 0.13 +/- 0.06 µM
- effect on proteinase K proteolysis [2]: drastically slowed
Substance: pSLN: chemically synthesized S-palmitoylated rabbit sarcolipin, 31-residue single-spanning membrane peptide, palmitoylated on Cys9 (MERSTRELC(Palmitoyl)LNFTVVLITVILIWLLVRSYQY; UniProt P42532 1-31, looked up)

Source: article PMC7810697, “Sarcolipin alters SERCA1a interdomain communication by impairing binding of both calcium and ATP” (Scientific Reports, 2021)
